Assay results from patent US20050170334A1 (published 2005).

T1: OVA (UniProt P01012 2-386)
T1 sequence: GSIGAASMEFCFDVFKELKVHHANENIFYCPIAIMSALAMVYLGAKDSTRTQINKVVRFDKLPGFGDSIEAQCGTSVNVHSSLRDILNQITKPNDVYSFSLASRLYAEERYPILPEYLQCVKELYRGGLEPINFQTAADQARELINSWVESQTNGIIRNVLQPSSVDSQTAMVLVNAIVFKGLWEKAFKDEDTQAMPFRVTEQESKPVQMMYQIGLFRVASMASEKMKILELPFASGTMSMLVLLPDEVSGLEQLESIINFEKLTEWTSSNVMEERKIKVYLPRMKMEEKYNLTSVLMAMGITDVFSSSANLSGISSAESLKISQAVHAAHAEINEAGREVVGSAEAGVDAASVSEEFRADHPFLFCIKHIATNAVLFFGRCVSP


Columns and labels:
[1] = target: T2, BSA (UniProt P02769 25-607); assay: ELISA
T2 construct: carrier for immunization
T2 sequence (P02769 25-607 limits assumed): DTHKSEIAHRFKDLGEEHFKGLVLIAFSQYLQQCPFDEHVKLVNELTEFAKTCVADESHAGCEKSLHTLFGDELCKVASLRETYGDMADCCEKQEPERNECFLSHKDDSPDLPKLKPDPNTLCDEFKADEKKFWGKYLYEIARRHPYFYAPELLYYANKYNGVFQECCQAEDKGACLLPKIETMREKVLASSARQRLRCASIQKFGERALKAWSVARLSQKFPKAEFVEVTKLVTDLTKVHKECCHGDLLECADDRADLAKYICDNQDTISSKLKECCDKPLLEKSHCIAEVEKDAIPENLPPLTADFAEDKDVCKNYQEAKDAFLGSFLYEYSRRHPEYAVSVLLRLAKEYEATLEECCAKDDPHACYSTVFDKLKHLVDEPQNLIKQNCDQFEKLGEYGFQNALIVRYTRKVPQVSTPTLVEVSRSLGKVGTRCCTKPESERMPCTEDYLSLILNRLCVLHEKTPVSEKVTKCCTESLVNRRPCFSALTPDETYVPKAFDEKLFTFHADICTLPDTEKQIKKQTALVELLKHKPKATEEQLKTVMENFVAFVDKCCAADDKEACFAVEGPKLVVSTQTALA

[2] = target: T1, OVA; assay: ELISA

| Binder | binding result [1] | binding result [2] |
| --- | --- | --- |
| L66 (antibody, V domains shown) VH: EVQLVESGGGVVRPGGSLRLSCAASGFTFDDYGMSWVRQAPGKGLEWVSGINWNGGSTGYADSVKGRFTISRDNAKNSLYLQMNSLRAEDTALYYCARDRVTMVRGVIMDYYGMDVWGQGTTVTVSS VL: QTVVTQEPSLTVSPRGTVTLTCSSSTGAVTSGYYPGWFQLKPGQAPMSLIYSARKKHSWTPARFSGSLLGGKAALTLSGVQPEDEAEYYCLLYYGGAYVFGTGTKVTVLG | no binding (tested: OD450 below 0.1) | no binding (tested: OD450 below 0.1) |
| human anti-M2 antibody C40 (antibody, V domains shown) VH: QLQLQESGPGLVKPSETLSLTCTVSGGSISSSFYYCGWIRQPPGKGLEWIGSIYYRGSTYYNPSLKSRVTISVDTSKNQFSLKLSSVTAADTAVYYCARRVTMVRGVKGDYFDYWGQGTLVTVSS VL: DIQMTQSPSSLSASVGDRVTITCRASQGISSWLAWYQQKPEKVPKSLIYAASSLQSGVPSRFSGSGSGTDFTLTISSLQPEDFATYYCQQYNYYPLTFGGGTKVEIKR | no binding (tested: OD450 below 0.1) | no binding (tested: OD450 below 0.1) |
| C40G1 (antibody, V domains shown) VH: QLQLQESGPGLVKPSETLSLTCTVSGGSISSSFYYCGWIRQPPGKGLEWIGSIYYRGSTYYNPSLKSRVTISVDTSKNQFSLKLSSVTAADTAVYYCARRVTMVRGVKGDYFDYWGQGTLVTVSS VL: DIQMTQSPSSLSASVGDRVTITCRASQGISSWLAWYQQKPEKVPKSLIYAASSLQSGVPSRFSGSGSGTDFTLTISSLQPEDFATYYCQQYNYYPLTFGGGTKVEIKR | no binding (tested: OD450 below 0.1) | no binding (tested: OD450 below 0.1) |
| N547 (antibody, V domains shown) VH: not shown VL: QSVLTQPPSMSAAPGQKVTISCSGSSSNIGNNYISWYQQLPGTAPKVLIYDNNKRPSGIPDRFSGSKSGTSATLGITGLQTGDEADYYCGSWDSSLSAGVFGTGTKVTVLG | no binding (tested: OD450 below 0.1) | no binding (tested: OD450 below 0.1) |
